B1: Cohesin subunit psc3 (Schizosaccharomyces pombe (strain ATCC 38366 / 972)), O13816 (parent)
chain: MSESVTTGSDDDGGDRESSPVMLSQSFDPMSSSSNSSSEENSDDDYEKTISSKKRHPRPNSKGVNVKRSRRNAIVEEDPQEEIFNNLFAFLLDQKVDTMDIAVSWFADYAKDNQSALANLINFILKCCGCNRAINVFDVQDQDSASATLSQIQLSVERTSTRDYPLNSKNLKFRNFRKRLTGLLSNFVSQLSIRNYLYNSTVFEDIMSWVVAMSSSTMRPIRHTATVFCLNIMTFLCEKSKELLNEHAIATKQLEKEEKRSRVNRNRINELNNSLGEIVKQQDTLTTYLNDYFDSVFVHRYRDVEPKIRVDCLQELGVWINTVPSIFFSGSYLRYLGWMLSDINTTVRLTVVKVLRKFFETDSFIGGLRHFSSRFKERILEMSCVDADIGVRVASIRLCNAMRTCGFLENSEILKVLKLILDINPRVQREAVLFLCKVVDESVNEKIDLWGEEDYILKAFSQTSLTTFSVHWIKFSQMCKLLEEVRLSYQSSFDYDTLLRIFQKNGNFITPITQALLNACEIDSIYQSWEDISNFVLFDNYTSTLKDPIDSILSFCKLNDFQESILLQLLSASIQTVCNNNFITPKTVHNKQAAETTNDQNKDKDLLYLNLLPYINSITERNSASPTLLHDSLRLLFSMDLTEMTDPQLSRHFELLINNLKKFFLTNNDLQIIQGCTILFLRLDSIPALKEDLKLLVTDICDQTVTEFLKNFGSFNIQDAVITKDEFVIFEACLTRIEGCTSLKDFSDYPEFDIIYERLVSLLSRVPNSYEDTLKFSAINTLQSLLFWFFLRKDNPADEEKKKDDETKVFNCLINIMNNDSSKILQLQAARTFLETVIMKEGVKASHYNDDNRVSEEHNFLKPQFLDALLKILEGWLYTYAKVGQFPFKRLTQASSPHTQISLDKNPLNRRLLEHVCCDLTSKLLIVVSLSNTITPEFSQQFCELRGHYGPKLSAIVDEFLN

The assay covers variants of B1. Conditions: with mis4_schpo mis4, Q09725.
mis4_schpo mis4, Q09725, sequence (Q09725 whole entry): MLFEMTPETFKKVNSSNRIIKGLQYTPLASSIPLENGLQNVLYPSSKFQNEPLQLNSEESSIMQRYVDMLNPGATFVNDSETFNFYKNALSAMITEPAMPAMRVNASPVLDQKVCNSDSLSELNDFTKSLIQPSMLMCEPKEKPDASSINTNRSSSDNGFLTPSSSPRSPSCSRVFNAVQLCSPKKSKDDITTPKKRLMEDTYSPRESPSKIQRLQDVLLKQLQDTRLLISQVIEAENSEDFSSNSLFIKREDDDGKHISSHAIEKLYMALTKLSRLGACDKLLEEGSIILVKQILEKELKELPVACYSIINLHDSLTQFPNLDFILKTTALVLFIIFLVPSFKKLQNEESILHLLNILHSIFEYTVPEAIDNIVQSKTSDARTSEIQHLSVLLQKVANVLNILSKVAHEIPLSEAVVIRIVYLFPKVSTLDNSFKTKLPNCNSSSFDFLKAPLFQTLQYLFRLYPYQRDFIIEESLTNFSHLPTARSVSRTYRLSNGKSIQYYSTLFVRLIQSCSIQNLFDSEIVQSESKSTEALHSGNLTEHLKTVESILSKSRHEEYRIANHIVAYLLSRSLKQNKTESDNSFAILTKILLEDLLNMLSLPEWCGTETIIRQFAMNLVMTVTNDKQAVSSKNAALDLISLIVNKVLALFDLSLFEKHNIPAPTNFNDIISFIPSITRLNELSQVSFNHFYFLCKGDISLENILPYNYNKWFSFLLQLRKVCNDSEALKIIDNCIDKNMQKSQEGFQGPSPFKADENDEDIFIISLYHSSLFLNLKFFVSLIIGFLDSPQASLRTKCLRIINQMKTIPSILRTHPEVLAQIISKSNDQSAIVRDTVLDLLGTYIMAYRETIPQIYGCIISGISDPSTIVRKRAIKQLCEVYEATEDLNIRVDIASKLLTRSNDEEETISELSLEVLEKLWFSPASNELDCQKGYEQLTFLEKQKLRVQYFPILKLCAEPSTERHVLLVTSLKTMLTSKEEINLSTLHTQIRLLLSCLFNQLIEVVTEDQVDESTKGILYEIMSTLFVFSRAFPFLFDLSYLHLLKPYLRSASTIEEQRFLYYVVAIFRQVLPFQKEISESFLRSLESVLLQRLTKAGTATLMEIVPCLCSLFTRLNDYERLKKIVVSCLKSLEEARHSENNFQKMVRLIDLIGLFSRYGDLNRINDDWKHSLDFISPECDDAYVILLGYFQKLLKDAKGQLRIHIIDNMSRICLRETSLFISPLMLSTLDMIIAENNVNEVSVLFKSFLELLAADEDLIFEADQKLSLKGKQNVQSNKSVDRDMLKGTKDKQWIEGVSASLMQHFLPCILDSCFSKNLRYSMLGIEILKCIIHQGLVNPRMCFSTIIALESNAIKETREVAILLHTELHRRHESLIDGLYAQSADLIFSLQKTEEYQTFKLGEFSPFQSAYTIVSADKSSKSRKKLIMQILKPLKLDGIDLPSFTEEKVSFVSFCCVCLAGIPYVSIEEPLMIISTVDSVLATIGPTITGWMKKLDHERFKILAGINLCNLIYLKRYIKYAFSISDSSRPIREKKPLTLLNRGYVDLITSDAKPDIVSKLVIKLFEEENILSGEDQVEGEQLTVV
Take R300G: the “effect of a mutation on the interaction” value is reported as “decreasing interaction strength”. The entry for P306L is “decreasing interaction strength”.

The values are drawn from IntAct's records for PubMed 24291789.
